The values below come from patent publication US20190161555A1 (ALLIGATOR BIOSCIENCE, published 2019).

What is called EC50 is the midpoint of the concentration-response curve. Lower therefore signals a more potent agent. What is called Kd is the equilibrium constant for the complex coming apart. Read a low Kd as higher affinity. A word on the koff: it is the rate constant with which the complex falls apart. Read a low koff as a long-lived complex. For orientation: kon means the second-order rate constant of association. A lower kon goes with slow association. For orientation: EC50 (read off the curve) means the concentration giving half of the maximal effect.

For test [1], the target named is T1, Human OX40 (R&D Systems, 3388-OX) (human, UniProt P43489 29-216).
T1 construct: bought; also called OX40-Fc; Human OX40 (R&D systems, #3358_OX)
T1 sequence (looked up): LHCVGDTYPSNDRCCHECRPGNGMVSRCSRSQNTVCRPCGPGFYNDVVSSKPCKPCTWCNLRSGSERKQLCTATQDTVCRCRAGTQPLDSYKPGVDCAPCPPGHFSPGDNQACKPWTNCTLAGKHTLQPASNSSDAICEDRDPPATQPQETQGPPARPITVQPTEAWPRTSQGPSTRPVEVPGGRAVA
Put plainly: ELISA, plates coated with human OX40, IgG. As for the experimental part: (§1) ELISA plates were coated with human OX40 (R&D Systems, 3388-OX), CD40 (Ancell), or CD137 (R&D Systems) at 0.1 or 0.5 μg/ml. The ELISA plates were washed with PBST and then blocked with PBST+2% BSA for 1 h at room temperature and then washed again with PBST. The antibodies were added in dilution series to the ELISA plates for 1 h at room temperature and then washed with PBST. Binding was detected using goat anti human kappa light chain HRP, incubated for 1 h at room temperature. SuperSignal Pico Luminescent was used as substrate and luminescence was measured using Fluostar Optima.
(In general: ELISA stands for enzyme-linked immunosorbent assay.)

The target in test [2] is T1, Human OX40 (R&D Systems, 3388-OX). Put plainly: SPR Biacore, human OX40 amine-coupled on CM5, antibody injected, 1:1 Langmuir. Here is the method:
Human OX40 (R&D systems, #3358_OX) was immobilized to the Biacore™ sensor chip, CM5, using conventional amine coupling. The tested antibodies and controls (serially diluted 1/3 or 1/2 100-2 nM) were analyzed for binding in HBS-P (GE, #BR-1003-68) at a flow rate of […]. The association was followed for 3 minutes and the dissociation for 20 minutes. Regeneration was performed twice using 50 mM NaOH for 60 seconds. The kinetic parameters and the affinity constants were calculated using 1:1 Langmuir model with drifting baseline. […] The kinetic parameters and the affinity constants were calculated using BIAevaluation 4.1 software.

The next test concerns the target CD40 (Ancell) (UniProt P25942 21-193, limits assumed). The test is described as follows: ELISA, CD40 coated. As for the experimental part:
as §1

Test [3] concerns the target T2, human OX40 overexpressed on CHO cells (human, UniProt P43489 29-214; P25942 194-277).
T2 construct: extracellular domain;domain: transmembrane and intracellular part; also called hOX40; huOX40 (CHO)
T2 sequence (looked up): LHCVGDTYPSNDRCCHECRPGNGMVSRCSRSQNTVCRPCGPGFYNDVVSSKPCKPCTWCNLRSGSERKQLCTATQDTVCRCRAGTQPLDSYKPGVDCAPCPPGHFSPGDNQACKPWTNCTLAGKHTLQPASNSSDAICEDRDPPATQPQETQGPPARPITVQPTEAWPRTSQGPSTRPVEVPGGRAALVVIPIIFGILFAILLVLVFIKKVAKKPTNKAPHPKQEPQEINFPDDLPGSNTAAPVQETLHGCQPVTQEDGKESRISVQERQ
Put plainly: flow cytometry on CHO cells overexpressing human OX40, anti-huIgG-PE detection, MFI. Here is the method:
The extracellular part of human OX40 was fused to the transmembrane and intracellular part of hCD40 and cloned into pcDNA3.0. The vector was subsequently stably transfected into CHO cells. […] For the assay, the transfected cells were incubated with the test antibodies and controls for 30 min at 4° C. and then detected with a-huIgG-PE (Jackson Immunoresearch) 30 min 4° C. Cells were analyzed by flow cytometry with FACS Verse (BD Biosciences).
For orientation: In flow cytometry, cells or beads pass a laser one at a time.

In a further test the target is CD137 (R&D Systems) (UniProt Q07011 24-186, limits assumed). The test is described as follows: ELISA, CD137 coated. Here is the method:
as §1

In test [4] the target is T3, Construct 84: full length OX40 (human, UniProt P43489 29-277).
T3 construct: whole, on cells
T3 sequence (looked up): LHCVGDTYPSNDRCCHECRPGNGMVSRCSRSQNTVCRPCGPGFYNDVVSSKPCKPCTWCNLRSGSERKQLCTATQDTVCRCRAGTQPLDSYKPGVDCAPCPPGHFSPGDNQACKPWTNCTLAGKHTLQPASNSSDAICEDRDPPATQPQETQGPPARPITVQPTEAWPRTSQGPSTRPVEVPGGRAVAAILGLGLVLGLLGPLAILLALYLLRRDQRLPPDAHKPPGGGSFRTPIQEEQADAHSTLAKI
The test is described as follows: flow cytometry, 293-F cells transfected with the construct. Here is the method:
The transfected cells were incubated with human OX40 antibodies, human OX40L (hOX40L, RnD Systems), mouse OX40L (mOX40L, RnD Systems) and controls for 30 min 4° C. and then detected with a-huIgG-PE (Jackson Immunoresearch) 30 min 4° C. Cells were analyzed with FACS Verse (BD Biosciences). Binding to the different chimeric constructs were calculated as relative (mean fluorescence intensity) MFI compared to the binding of the isotype control.

The target in the next test is T4, murine OX40 (murine, UniProt P47741 20-211, limits assumed).
T4 construct: also called mouse OX40
T4 sequence (looked up): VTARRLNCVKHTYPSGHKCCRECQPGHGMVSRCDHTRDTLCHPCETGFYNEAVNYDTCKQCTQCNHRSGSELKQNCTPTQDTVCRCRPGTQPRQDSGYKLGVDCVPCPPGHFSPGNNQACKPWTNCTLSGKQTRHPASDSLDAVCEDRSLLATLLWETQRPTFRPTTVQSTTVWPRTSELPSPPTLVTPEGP
The test is described as follows: ELISA.

The target in a further test is T5, 5T4-Fc (human, UniProt Q13641 32-355, limits assumed).
T5 construct: obtained from Peter L. Stern, University of Manchester; also called h5T4-Fc; recombinant 5T4
T5 sequence (looked up): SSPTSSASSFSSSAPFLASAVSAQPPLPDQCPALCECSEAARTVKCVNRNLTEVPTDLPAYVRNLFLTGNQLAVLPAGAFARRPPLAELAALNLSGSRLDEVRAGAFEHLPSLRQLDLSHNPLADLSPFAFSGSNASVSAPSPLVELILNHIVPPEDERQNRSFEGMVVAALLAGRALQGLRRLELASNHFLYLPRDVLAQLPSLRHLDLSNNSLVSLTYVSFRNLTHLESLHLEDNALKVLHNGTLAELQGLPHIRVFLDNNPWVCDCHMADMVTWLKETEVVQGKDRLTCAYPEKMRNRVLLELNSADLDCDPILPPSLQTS
Put plainly: dual ELISA: OX40-Fc coated, detection with biotinylated 5T4-Fc and streptavidin-HRP, luminescence. Here is the method: A dual ELISA was used to detect simultaneous binding of the two targets by the bispecific antibodies. ELISA plates were coated with OX40-Fc (R&D systems, #3388-OX, 0.5 μg/ml) over night at 4° C. followed by blocking with PBST+2% bovine serum albumin (BSA) for 1 h at room temperature (RT). […] Biotinylated 5T4-Fc (0.5 μg/ml), followed by HRP-labelled streptavidin (Pierce #21126) were used for detection. Super signal ELISA Pico Chemiluminescent Substrate (Thermo Scientific, #37069) was used as substrate and luminescence was measured using FLUOstar Optima.

Test [5] concerns the target Macaca mulatta OX40 on HEK cells (Macaca mulatta; human). The test is described as follows: flow cytometry, macOX40-HEK cells; ends of the 95% confidence interval. Here is the method: For the assay, the transfected cells were incubated with the test antibodies and controls for 30 min at 4° C. and then detected with a-huIgG-PE (Jackson Immunoresearch) 30 min 4° C. Cells were analyzed by flow cytometry with FACS Verse (BD Biosciences).

Positions count from the first letter of the chain named. Some results are limits rather than exact numbers.

CD40 (Ancell), sequence (P25942 21-193 limits assumed): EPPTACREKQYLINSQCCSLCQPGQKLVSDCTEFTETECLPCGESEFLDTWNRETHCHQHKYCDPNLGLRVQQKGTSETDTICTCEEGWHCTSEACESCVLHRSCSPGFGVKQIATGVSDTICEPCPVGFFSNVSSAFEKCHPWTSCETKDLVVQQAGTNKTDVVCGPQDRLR
CD137 (R&D Systems), sequence (Q07011 24-186 limits assumed): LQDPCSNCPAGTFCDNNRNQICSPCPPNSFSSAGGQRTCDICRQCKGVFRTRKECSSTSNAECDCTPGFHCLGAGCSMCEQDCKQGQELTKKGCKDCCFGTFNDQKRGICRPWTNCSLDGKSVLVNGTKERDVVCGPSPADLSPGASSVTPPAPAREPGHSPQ

B1: 1164/1135 (antibody, V domains shown)
VH: EVQLLESGGGLVQPGGSLRLSCAASGFTFYGSSMYWVRQAPGKGLEWVSGIYSSGGYTSYADSVKGRFTISRDNSKNTLYLQMNSLRAEDTAVYYCARGVPHGYFDYWGQGTLVTVSS
VL: not shown
notes: OX40 antibody, tested as IgG
With B1, the half-maximal effective concentration (EC50) in test [1] is under 1 nM. In test [2], this molecule yielded a Kd of 0.308 nM, a koff of 7.73e-05 s⁻¹ and a kon of 251000 M⁻¹ s⁻¹. In addition, the binding result with CD40 (Ancell) is listed as “no binding”. Besides, in [3], the “EC50 (read off the curve)” value is about 0.01 µg/mL. In the test with CD137 (R&D Systems), the binding result is “no binding”. Moreover, the “relative MFI” value in [4] turned out to be 27.5 fold over isotype control. In addition, the binding result with murine OX40 is “no binding”.

B2: 1524/1525 (antibody, V domains shown)
VH: EVQLLESGGGLVQPGGSLRLSCAASGFTFGSYYMGWVRQAPGKGLEWVSSIGSYYGYTYYADSVKGRFTISRDNSKNTLYLQMNSLRAEDTAVYYCARHDYGALDYWGQGTLVTVSS
VL: DIQMTQSPSSLSASVGDRVTITCRASQSISSYLNWYQQKPGKAPKLLIYAASSLQSGVPSRFSGSGSGTDFTLTISSLQPEDFATYYCQQYGPSGLFTFGQGTKLEIK
notes: OX40 antibody, tested as IgG
B2 displayed a 50% effective concentration (EC50) in test [1] of under 1 nM. In test [2], this molecule registered a dissociation constant (Kd) of 0.811 nM, a koff of 0.00139 s⁻¹ and an association rate constant (kon) of 1.71e+06 M⁻¹ s⁻¹. In addition, the binding result in the test with CD40 (Ancell) was “no binding”. Moreover, the “EC50 (read off the curve)” value in test [3] was about 0.05 µg/mL. For the same molecule, in the test with CD137 (R&D Systems), the binding result is reported as “no binding”. Also, in test [4], the “relative MFI” value was found to be 31.4 fold over isotype control. Further, in the test with murine OX40, the binding result is “no binding”.

B3: 1166/1167 (antibody, V domains shown)
VH: EVQLLESGGGLVQPGGSLRLSCAASGFTFGGYYMSWVRQAPGKGLEWVSAISGSGGSTYYADSVKGRFTISRDNSKNTLYLQMNSLRAEDTAVYYCARYDYASMDYWGQGTLVTVSS
VL: B2 VL with G92Y, P93W, S94Y, F97S
As for B3, the binding result was “no binding (tested: about 80 nM (log[conc ab] 1.9))” with 5T4-Fc, “no binding” with CD40 (Ancell), “no binding” with CD137 (R&D Systems) and “no binding” in the test with murine OX40. This molecule gave an EC50 in [5] of 0.16 to 0.242 µg/mL.
